Test results taken from CN108059680A (BEIJING DONGFANG BIOTECH CO LTD, dated 2018).

Target: T1, CD20 (UniProt P11836 1-297, limits assumed)
T1 construct: whole, on cells; also called 细胞表面CD20; Raji细胞(过表达CD20细胞系)
T1 sequence (looked up): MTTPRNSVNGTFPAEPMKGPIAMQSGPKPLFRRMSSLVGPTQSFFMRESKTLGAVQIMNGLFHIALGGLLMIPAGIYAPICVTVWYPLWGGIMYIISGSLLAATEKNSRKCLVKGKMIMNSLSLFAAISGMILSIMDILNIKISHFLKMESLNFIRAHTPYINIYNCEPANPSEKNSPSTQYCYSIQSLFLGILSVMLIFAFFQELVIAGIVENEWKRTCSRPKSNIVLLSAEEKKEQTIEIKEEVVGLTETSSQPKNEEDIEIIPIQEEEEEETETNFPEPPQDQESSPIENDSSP
Test: flow cytometry on Raji cells (CD20-overexpressing), Alexa488 anti-human IgG-Fc detection

B1: JY052 (bispecific antibody, human IgG4 S228P, kappa)
light: DIVMTQTPLSLPVTPGEPASISCRSSKSLLHSNGITYLYWYLQKPGQSPQLLIYQMSNLVSGVPDRFSGSGSGTDFTLKISRVEAEDVGVYYCAQNLELPYTFGGGTKVEIKRTVAAPSVFIFPPSDEQLKSGTASVVCLLNNFYPREAKVQWKVDNALQSGNSQESVTEQDSKDSTYSLSSTLTLSKADYEKHKVYACEVTHQGLSSPVTKSFNRGEC
heavy: QVQLVQSGAEVKKPGSSVKVSCKASGYAFSYSWINWVRQAPGQGLEWMGRIFPGDGDTDYNGKFKGRVTITADKSTSTAYMELSSLRSEDTAVYYCARNVFDGYWLVYWGQGTLVTVSSASTKGPSVFPLAPCSRSTSESTAALGCLVKDYFPEPVTVSWNSGALTSGVHTFPAVLQSSGLYSLSSVVTVPSSSLGTKTYTCNVDHKPSNTKVDKRVESKYGPPCPPCPAPEFLGGPSVFLFPPKPKDTLMISRTPEVTCVVVDVSQEDPEVQFNWYVDGVEVHNAKTKPREEQFNSTYRVVSVLTVLHQDWLNGKEYKCKVSNKGLPSSIEKTISKAKGQPREPQVYVLPPSQEEMTKNQVSLLCLVKGFYPSDIAVEWESNGQPENNYLTWPPVLDSDGSFFLYSRLTVDKSRWQEGNVFSCSVMHEALHNHYTQKSLSLSLG
chain: not shown
notes: Three-chain bispecific: anti-CD20 light-heavy pair plus anti-CD3 single-chain Fab-Fc, joined by hinge disulfides and a knob-into-hole structure in CH3; also called 抗CD20×CD3的双特异抗体; 针对CD20和CD3的双特异性抗体
- binding result: binds
